The values that follow come from patent US20110045003A1 (SYNOVEX, published 2011).

Bounds are passed on as bounds.

Assay [1] has as its target T1, BSA coupled 37-mer Cad-11 peptide encompassing the Cad-11 immunogen (UniProt P55287 54-90, limits assumed, linked to BSA).
T1 construct: domain: 37-mer peptide encompassing the Cad-11 immunogen; also called Cad-11 antigen; Cad-11 peptide immunogen
T1 peptide (looked up): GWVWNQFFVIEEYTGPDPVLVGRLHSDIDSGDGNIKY
As to the kind of experiment: ELISA on BSA coupled 37-mer cadherin peptides, coat 500 ng/ml. How it is done: A dilution series from 5 μg/ml to 8 ng/ml in a volume of 100 μl/well of each the humanized anti-Cad-11 antibodies were incubated in the peptide coated wells and incubated at 22° C. for 1 hr. Antibody solution was removed from the wells and the plate washed twice with 200 μl/well of 0.05% Tween-PBS at 22° C. and blotted dry. The goat-anti mouse IgG (Pierce # 31432) was added to each well to plate at a 1:1000 dilution, 100 μl/well and incubate at 22° C. for 30 min. The secondary antibody solution was removed and the plate washed twice with 200 μl/well of 0.05% Tween-PBS at 22° C. and blotted dry. The reaction was developed by adding 100 μl/well tetramethylbenzidine (TMB) reagent IgG (Pierce # 34022, 1 step Turbo TMB-ELISA) to plate and developed at 22° C. for 5 min.
The greatest cross reactivity was seen against Cad-8. […] This assay was repeated with the Cad-11, Cad-8 and Cad-18 antigens with a lower antigen coat concentration of 50 ng/ml and a wider dilution series of the SDP051 antibody (FIG. 41B). […] An EC50 for Cad-18 could not be established due to the low level of binding observed.
(In general: ELISA stands for enzyme-linked immunosorbent assay.)

For assay [2], the target named is T1, BSA coupled 37-mer Cad-11 peptide …. Kind of assay: ELISA on BSA coupled 37-mer peptide, coat 50 ng/ml; Cad-11 antigen, coat 50 ng/ml.
Assay [3] addresses T2, recombinant Cad-11 EC1 human IgG1 fusion protein (R&D Systems Cat. No. 1790-CA-050) (human, UniProt P55287 54-617, limits assumed).
T2 construct: Bought protein; the catalogue product may hold more of the extracellular region; also called recombinant human Cad-11 EC1; recombinant human Cad-11 fusion protein; not shown: human IgG1 part of the bought fusion protein
T2 sequence: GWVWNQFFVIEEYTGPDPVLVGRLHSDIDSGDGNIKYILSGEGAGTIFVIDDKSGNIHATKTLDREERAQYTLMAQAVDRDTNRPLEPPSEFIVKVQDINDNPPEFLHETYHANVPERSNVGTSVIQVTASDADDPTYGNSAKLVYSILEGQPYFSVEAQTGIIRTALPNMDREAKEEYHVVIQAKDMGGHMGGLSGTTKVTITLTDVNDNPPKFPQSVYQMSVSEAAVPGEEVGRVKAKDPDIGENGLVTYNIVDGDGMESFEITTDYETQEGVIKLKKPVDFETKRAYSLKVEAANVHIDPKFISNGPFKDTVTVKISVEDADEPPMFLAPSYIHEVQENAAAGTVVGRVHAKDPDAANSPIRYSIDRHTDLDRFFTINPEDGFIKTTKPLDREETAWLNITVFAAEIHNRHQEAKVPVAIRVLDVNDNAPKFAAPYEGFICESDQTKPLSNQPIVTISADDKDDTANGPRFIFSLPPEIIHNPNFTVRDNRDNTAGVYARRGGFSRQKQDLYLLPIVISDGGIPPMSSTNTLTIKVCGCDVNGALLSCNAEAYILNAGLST
As to the kind of experiment: competition ELISA on coated recombinant human Cad-11 EC1 fusion; competitor biotinylated SYN0012/H1M1 at 0.1 µg/ml. How it is done:
The binding of the purified humanized composite variant antibodies (SDP011 to SDP151) to a recombinant Cad-11 EC1 human IgG1 fusion protein was assessed in a competition binding ELISA. A dilution series from 5 μg/ml to 0.0022 μg/ml of the humanized or control (SYN0012/H1M1) antibodies was premixed with a constant concentration of biotinylated murine anti-Cad-11 antibody, SYN0012/H1M1 (0.1 μg/ml, final concentration), before incubating for 1 hour at room temperature on a Nunc Immuno MaxiSorp 96 well flat bottom microtitre plate (Fisher Cat. No. DIS-971-030J) pre-coated with 0.25 μg/ml recombinant human Cad-11 EC1 (R&D Systems Cat. No. 1790-CA-050) diluted in PBS. The binding of the biotinylated mAb was detected with streptavidin-HRP (Sigma Cat. No. 55512) and tetramethylbenzidine (TMB) substrate (Invitrogen Cat. No. 00-2023).
The relative IC50 was calculated by dividing the value for the test antibody by that of SYN0012. Antibody expression levels given are for static cultures in T flasks. PI are calculated.

B1: humanized anti-Cad-11 EC1 antibody SDP051 (Vκ1/VH5) (antibody, IgG4, V domains shown)
VH: EVQLVQSGAEVKKPGASVKVSCKASGYSFTGYFMNWVRQAPGQGLEWIGRINPYTGDTFYNQKFKGRVTITVDKSTSTAYMELSSLRSEDTAVYYCGRLGSRYWYFDVWGQGTTVTVSS
VL: DVLMTQTPLSSPVTLGQPASISCRSSQSIIHSNGNTYLEWYLQKPGQSPQLLIYKVSNRFSGVPDRFTGSGSGTDFTLKISRVEAEDVGVYYCFQGSHVPWTFGQGTKLEIK
notes: humanized IgG4 (S241P), kappa
B1: the “fold greater binding to the Cad-11 antigen than to the related antigens from the other cadherins” value in assay [1] is above 100 fold. Moreover, in assay [2], the response was half-maximal at 6.8 ng/mL (EC50). Besides, the “relative IC50 (IC50 of the test antibody divided by that of SYN0012)” value in assay [3] is 0.99 ratio (column head prints µg/mL).
